The source of these data is the Human Domainome abundance scans (Beltran et al. 2025).

The labels stand for the following.
B1: CD2-associated protein, residues 271 to 331; numbered along this chain, Q9Y5K6 (parent)
chain: KEYCRTLFAYEGTNEDELTFKEGEIIHLISKETGEAGWWRGELNGKEGVFPDNFAVQINEL

± gives the uncertainty stated by the source.

The data set covers variants of B1. In words: abundance fitness (aPCA) (normalised: wild type 0, dead -1); higher = more abundant; growth selection in yeast, the domain comes from the species named. The following applies: Homo sapiens.
With E24P, the abundance fitness is -0.694 ± 0.12. For the variant E24R, the abundance fitness is -0.782 ± 0.052. Regarding E24W, the abundance fitness is -0.827 ± 0.081. For the variant E24Q, the abundance fitness was -0.14 ± 0.062. Regarding F20K, the abundance fitness was -0.665 ± 0.097. In the case of F20W, the abundance fitness is -0.887 ± 0.12. In the case of L61P, the abundance fitness was determined as 0.215 ± 0.086.

On to L61W, for which the abundance fitness was -0.116 ± 0.089. Take L61Y: the abundance fitness was determined as 0.064 ± 0.21. Turning to L61A, the abundance fitness stood at 0.033 ± 0.13. With L61H, the abundance fitness is 0.009 ± 0.32. For the variant L61S, the abundance fitness amounted to 0.152 ± 0.077. For the variant V49H, the abundance fitness is -0.482 ± 0.14. Regarding V49P, the abundance fitness was -0.713 ± 0.11. As to V49Y, the abundance fitness was -0.022 ± 0.1. Consider V49C, for which the abundance fitness is -0.11 ± 0.058. The figure for V49A is -0.319 ± 0.065. For I58N, the abundance fitness is -0.378 ± 0.13.

For I58V, the abundance fitness turned out to be 0.005 ± 0.055. Turning to I58Y, the abundance fitness was -0.249 ± 0.09.

For I58Q, the abundance fitness is -0.247 ± 0.088. Take F8V: the abundance fitness stood at 0.004 ± 0.047.

With T6C, the abundance fitness is -0.614 ± 0.14. For T6H, the abundance fitness was -0.695 ± 0.21. For the variant T6S, the abundance fitness was -0.103 ± 0.055.

As for L18H, the abundance fitness is -0.843 ± 0.2. The result for L18V reads -0.524 ± 0.094; that for L18N, -0.761 ± 0.32; that for L18K, -0.744 ± 0.2. In the case of L18A, the abundance fitness is -0.485 ± 0.28.

Turning to L18Q, the abundance fitness is -0.831 ± 0.13. The figure for L18D is -0.739 ± 0.17; for E42K it is -0.011 ± 0.14. E42R: the abundance fitness was -0.099 ± 0.066.

On to E42H, for which the abundance fitness is -0.419 ± 0.13. In the case of E42M, the abundance fitness is -0.02 ± 0.1. Consider E17V, for which the abundance fitness is -0.497 ± 0.08.

Regarding E17W, the abundance fitness is -0.855 ± 0.083. For the variant E17K, the abundance fitness is -0.619 ± 0.093. Turning to E17Q, the abundance fitness amounted to 0.049 ± 0.071. In the case of E17H, the abundance fitness was -0.107 ± 0.1. For E17N, the abundance fitness is -0.755 ± 0.2. Take E17C: the abundance fitness is -0.182 ± 0.076.

As to E17P, the abundance fitness is -1.12 ± 0.22. As to E35M, the abundance fitness is -0.028 ± 0.097. With E35P, the abundance fitness is -0.252 ± 0.067.

Regarding E35A, the abundance fitness was 0.055 ± 0.1.

E35H: the abundance fitness was -0.078 ± 0.094.

Turning to E35G, the abundance fitness was -0.125 ± 0.13. The result for G45F reads -0.408 ± 0.18.

Take G45W: the abundance fitness was -0.829 ± 0.22. For G45V, the abundance fitness was -0.845 ± 0.083. The result for L7I reads -0.021 ± 0.1.

On to L7H, for which the abundance fitness was -0.674 ± 0.14. The result for L7E reads -0.457 ± 0.1; that for L7A, -0.275 ± 0.059; that for L7V, -0.088 ± 0.07. In the case of L7D, the abundance fitness was -0.426 ± 0.14. The figure for L7S is -0.107 ± 0.056. For the variant L7T, the abundance fitness is -0.017 ± 0.057.

Take L7F: the abundance fitness was -0.741 ± 0.15. For the variant L7K, the abundance fitness was -0.174 ± 0.056.

As for L7Y, the abundance fitness is -0.762 ± 0.15. Take Y3M: the abundance fitness was -0.372 ± 0.081.

As for Y3L, the abundance fitness was -0.131 ± 0.05. As to Y3V, the abundance fitness was -0.537 ± 0.11.

Turning to D52C, the abundance fitness came to 0.009 ± 0.12.

On to D52V, for which the abundance fitness was -0.16 ± 0.067. In the case of D52I, the abundance fitness came to 0.077 ± 0.46.

D52L: the abundance fitness is -0.055 ± 0.059. In the case of D52Q, the abundance fitness is -0.02 ± 0.17. Turning to N53S, the abundance fitness turned out to be 0.012 ± 0.042. The result for N53L reads -0.133 ± 0.059; that for N53M, -0.198 ± 0.09; that for N53V, -0.185 ± 0.049. As for N53Y, the abundance fitness was -0.084 ± 0.054.

In the case of F54S, the abundance fitness came out at 0.099 ± 0.067. The figure for F54E is -0.632 ± 0.13; for F54Q it is -0.347 ± 0.13. Turning to D16C, the abundance fitness is -0.128 ± 0.078. Regarding D16E, the abundance fitness is -0.018 ± 0.054. With D16Y, the abundance fitness is -0.072 ± 0.092. As for D16K, the abundance fitness was 0.026 ± 0.087. As to D16N, the abundance fitness is 0.014 ± 0.086. The result for D16F reads -0.002 ± 0.073; that for D16A, -0.061 ± 0.055.

Take K31E: the abundance fitness is -0.111 ± 0.49. Turning to K31N, the abundance fitness was -0.575 ± 0.069. In the case of K31D, the abundance fitness is -0.717 ± 0.14.

Consider K31W, for which the abundance fitness was -0.862 ± 0.47. Take K31I: the abundance fitness is -0.672 ± 0.091. Take K31Q: the abundance fitness was -0.52 ± 0.14. The figure for G23C is -0.45 ± 0.093. For G23E, the abundance fitness is -0.564 ± 0.17.

As to G23W, the abundance fitness is -0.532 ± 0.088. As for G23I, the abundance fitness is -0.613 ± 0.16.

For the variant G23N, the abundance fitness is -0.106 ± 0.12. On to G23A, for which the abundance fitness was -0.727 ± 0.13. Take K46E: the abundance fitness is -0.348 ± 0.13. The result for K46S reads -0.338 ± 0.062.

Turning to K46T, the abundance fitness was -0.273 ± 0.074.

For K46M, the abundance fitness is -0.235 ± 0.084. For I25E, the abundance fitness was -0.471 ± 0.084.

As to I25F, the abundance fitness is -0.302 ± 0.076. Consider I25S, for which the abundance fitness was -0.448 ± 0.071.

I25C: the abundance fitness was -0.485 ± 0.1. For I25N, the abundance fitness was -0.451 ± 0.097. The figure for E15I is -0.281 ± 0.13. As to E15V, the abundance fitness was -0.329 ± 0.11. Consider E15P, for which the abundance fitness was -0.027 ± 0.082.

On to N44F, for which the abundance fitness is -0.449 ± 0.062.

On to N44H, for which the abundance fitness was -0.03 ± 0.058. Take N44G: the abundance fitness was -0.029 ± 0.08. For the variant N44E, the abundance fitness is -0.043 ± 0.11. The result for N44D reads -0.113 ± 0.065; that for N44A, -0.152 ± 0.062; that for N44Q, -0.507 ± 0.35. Consider K21M, for which the abundance fitness is -0.202 ± 0.06.

For the variant K21S, the abundance fitness is -0.045 ± 0.063. On to K21H, for which the abundance fitness is -0.107 ± 0.3. For K21Y, the abundance fitness is -0.37 ± 0.16. On to K21V, for which the abundance fitness was -0.127 ± 0.048. The result for K21T reads -0.076 ± 0.072; that for E2N, 0.002 ± 0.12. The result for E2F reads -0.351 ± 0.18. On to E2R, for which the abundance fitness is -0.245 ± 0.063.

As for E2D, the abundance fitness was 0.039 ± 0.12. Turning to R40F, the abundance fitness was -0.16 ± 0.091.

Take R40Y: the abundance fitness is -0.195 ± 0.12.

Turning to R40S, the abundance fitness is -0.609 ± 0.066. With R40V, the abundance fitness was -0.513 ± 0.069. With R40Q, the abundance fitness was -0.3 ± 0.071. Turning to R40C, the abundance fitness was -0.332 ± 0.07. With Y10P, the abundance fitness is -0.79 ± 0.2. For the variant Y10H, the abundance fitness is -0.373 ± 0.17.

For the variant Y10W, the abundance fitness is -0.209 ± 0.066.

Y10L: the abundance fitness is -0.744 ± 0.14. Turning to Y10G, the abundance fitness was -0.544 ± 0.074. In the case of Y10T, the abundance fitness is -0.864 ± 0.22. The result for I29E reads -0.705 ± 0.11. I29V: the abundance fitness is -0.047 ± 0.054. As for I29T, the abundance fitness is -0.215 ± 0.07. As to I29Y, the abundance fitness was -0.755 ± 0.14. For the variant I29A, the abundance fitness was -0.672 ± 0.09. On to I29S, for which the abundance fitness was -0.463 ± 0.061. In the case of I29Q, the abundance fitness was -0.494 ± 0.097. For the variant I29F, the abundance fitness is -0.628 ± 0.12. For the variant I29C, the abundance fitness is -0.561 ± 0.22. Consider I26T, for which the abundance fitness is -0.605 ± 0.082. As for I26G, the abundance fitness was -0.856 ± 0.13.

Regarding I26H, the abundance fitness is -0.537 ± 0.17.

On to I26V, for which the abundance fitness was -0.153 ± 0.062. Consider I26E, for which the abundance fitness is -0.725 ± 0.12.

Regarding I26W, the abundance fitness is -0.599 ± 0.12.

For I26C, the abundance fitness was -0.46 ± 0.19. Turning to F50Q, the abundance fitness was -0.732 ± 0.12. In the case of F50P, the abundance fitness is -0.973 ± 0.24. Take F50M: the abundance fitness was -0.845 ± 0.14. For F50I, the abundance fitness was -0.822 ± 0.2. Turning to F50T, the abundance fitness was -0.705 ± 0.12. For the variant T33S, the abundance fitness was -0.097 ± 0.063. The figure for T33G is -0.076 ± 0.056; for T33D it is -0.282 ± 0.12; for T33K it is -0.332 ± 0.1. The result for T33R reads -0.473 ± 0.045. As to T33V, the abundance fitness is -0.129 ± 0.064. Take T33N: the abundance fitness is -0.333 ± 0.16.
